# Assay results from the DeepSol protein solubility set.
# Experiment: soluble on expression in E. coli; label from the status in PepcDB or PDB records
row,Sequence,soluble on expression in E. coli
1,MGSDKIHHHHHHMRKYSQRHIPVMVREVIEFLKPEDEKIILDCTVGEGGHSRAILEHCPGCRIIGIDVDSEVLRIAEEKLKEFSDRVSLFKVSYREADFLLKTLGIEKVDGILMDLGVSTYQLKGENRGFTFEREEPLDMRMDLESEVTAQKVLNELPEEELARIIFEYGEEKRFARRIARKIVENRPLNTTLDLVKAVREALPSYEIRRRKRHFATKTFQAIRIYVNRELENLKEFLKKAEDLLNPGGRIVVISFHSLEDRIVKETFRNSKKLRILTEKPVRPSEEEIRENPRARSGRLRAAERIEEGGD,not soluble
2,SPDEQLLKQVSELLQQGEHAQALNVIQTLSDELQSRGDVKLAKADCLLETKQFELAQELLATIPLEYQDNSYKSLIAKLELHQQAAESPELKRLEQELAANPDNFELACELAVQYNQVGRDEEALELLWNILKVNLGAQDGEVKKTFMDILSALGQGNAIASKYRRQLYSILY,soluble
3,MSLKLSNERAEWQAQMKKSVISEERQRLARDLHDAVSQQLFAISMMTSAVLEHVKDADDKTVKRIRMVEHMAGEAQNEMRALLLHLRPVTLEGKGLKEGLTELLDEFRKKQPIDIEWDIQDTAISKGVEDHLFRIVQEALSNVFRHSKASKVTVILGIKNSQLRLKVIDNGKGFKMDQVKASSYGLNSMKERASEIGGVAEVISVEGKGTQIEVKVPIFPEEKGENERDSSIIDEGHHHHHH,soluble
4,MGSDKIHHHHHHMNVTDLPQACISLIENVPGIDFIDEDFAIFDNIDDIPSLDHPMRIDAVVFALCTKGFMRIRINMEEYVVGENHLVLSLPDQIIQHVERSEDVAGIFIVISKNFMEEIIPHIQNTLPAFFYIKEHPVTELNAEEIGCIKEYHSFLWKKVKAKRHPYRKEIAQSLLLAVFHEVYGMFKNHMPIEVKKSRQEELFAAFIQTLALHHKQERSVAFYAGKLCVTPKYLSLLVKNVSNRTAGEWIDNYVVLEAKALLSSSTLSIQEISDRLNFTNQSFFGKYFKQHVGISPTEYRKKW,not soluble
5,MSTSADYKINQQQIVCVASFLSKEGKTEALIAALASLIPDTRREAGCIRYELNVSRDEPRRVTFVEKFVDIAAFDEHCAKDAIQHYFHQVMPELVESFHVETYHQVIA,soluble
6,MRNFANYHVDVRRHTSGVVKTICEQCLPTRHNKRDRSLRVNIDTGHCHCYHCGADFYVPDDAEERAKAERQAARKRRAASAVPQHFHRPVFDASKTTLSEATERWLVETRCIPQSVIAGLRITEQEEFMSQSGTKERCVCFNYFEDGKLVNTKFRSGAKNFKMVQGAELIPYNIDSVLGQDTCIIHEGELDAASSLATGFKSVISVPAGANANLSWLDRFMESHFENLKDIIIAVDTDSAGLKLRDELVNRLGAERCRVAVYGPGCKDANEHLVKYGIDSLRIAIEQAEEIPLEGIFTAADLHEDLRALFDNGFGPGAETGWEEMDKICTYERRRLVIVTGIPGAGKSEWLDELVLRLCMRHQWKIAFFSPENNPIVYHLRKLIEKLTGRRFQNGCGMTEGLLLRSEEFLAENVCHIALKGSATPERVLAKARELVLRRGCRIFVFDPVNRFEHTPAPGQSETQYLSNFLNLFTEFATQYNCLVILVAHPRKMNRNPVTNHTPRPDMYDVNGSADFFNKADYGLVVERDKEVGVTRVYVEKVKFKHLGTGGVATFVYDPVSGRYLPCEESQDPSVPPEQRVRNTVNDSSCWLPEKELFE,not soluble
7,MSLKSFFIGNIEIKVPVIQGGMGVGISLSGLASAVANEGGVGVISCAGLGLLYPKEKGTYTEKCISGLKEEIRKSRMKTKGIIGVNVMVALSNYADMVRTAINEKIDVIFSGAGLPLDLPSYLTTGSITKLVPIVSSSRAAKIICDKWQKNYNYLPDAIVVEGPKAGGHLGFKKEQLQDQNYALDVLIPEVVAIAASYKEQKHIPVIAAGGISTGEDIAHFMELGASGVQMGSIFVTTLECDASETFKEVYIHSKSEDVLIIESPVGMPGRAIDGEFIHSVNNGLEKPRKCSFHCIKTCDYTKSPYCIIKALYNAAKGNMKKGYAFAGSNAFLADKISSVKEVMNTLEREFFLATHKLVEGHHHHHH,not soluble
8,VDAFVGTWKLVDSKNFDDYMKSLGVGFATRQVGNMTKPTTIIEVNGDTVIIKTQSTFKNTEISFKLGVEFDETTADDRKVKSIVTLDGGKLVHVQKWNGQETSLVREMVDGKLILTLTHGTAVCTRTYEKQA,soluble
9,MLSINPNEQTEKDNYKLLTGSIIPRPVAFVTSVTKEGVLNGAPYSYFNIVAANPPLISVSVQRKAGERKDTSRNAIEKGEFVVHISDESYVAAINETAANLPPNESEIELAKLTPIESEVISVPGVKEANIRMECVLERAIPLGGTEDSPACDLLIGRVVRFHVAEHLYEKGRIHAEGLKPISRLAGHNYAKLGEQFELVRPI,soluble
10,MKYTQSFCFVSVIVLSSSVHLHGQNNKMNVLLIIADDMRPELGCYGIEDIVTPRLDSLARYATVFQNAYCNIPVSGASRASLFTGMYPRYPNRFTAFDASAEKDCPEALSLPECFKKNGYYVVSNGKVFHNITDHADSWSEAPWRVHPDGYGKDWAEYNKWELWQNEESSRYVHPKTLRGPFCESADVADTTYIDGRVAQKTIADLRRLHKKEKPFFLACGFWKPHLPFNAPKKYWDLYRREEIHLAQNPYRPKALPKQVTSSGEIRGYGKFVTTKDETFQREAKHGYYACVSYIDAQIGLILDELDRLGLSENTIVVILGDHGWHLGEHGFWGKHNLMNHATRAPLIVRVPHCRGGKAKGIVEFVDIYPTLCELCGVPMPKDQLQGKSFVPILQDSGKKTKQYAFIQWKGGYNIVSEQYSSTIWLQGDSVVARMIFDRQLDASENENKVHCPYLSRERDKLEAQIKIRKSQLLEHHHHHH,not soluble
11,MIIQIEEYFIGMIFKGNQLVRNTIPLRREEIFNFMDGEVVSNPEDEHLKVAEIILKLYFAEIDDKKVRELISYKLEVPEFTKKVLDIVKDIEFGKTLTYGDIAKKLNTSPRAVGMALKRNPLPLIIPCHRVVAKNSLGGYSYGLDKKKFILERERLNMVSFKFNKVY,soluble
12,MSLNKEQRRITAEELQAHFEESTLSVQMIAEKLNVTTEDVEKVLAMTAPLGIFSHQLQRFIHLVWDVRDVINDNIKGNGQTPEPYTYLKGEKEDYWFLR,not soluble
13,MGSDKIHHHHHHMPGRAGGCTRNTGAPVNRQDRAHAFLQRALEAQAALPVDHGLMRDLFAGTGDDSRLSLSEVGELVSRDPSLAVRILSLANSAYYGLQAEVTTVGRAVTVLGMREVRNLVLALGFSSVARMHPLPDRFCTAGYWLHQLRVAAFCRIIAAGTEDLDPEMLYTAGLLHDIGKLFIAALAPDDWLGIRRLARQESLPDCKAEERWWGLDHALAGARVLAYWQLPAALTEPISWHHGPHFADAAHARGAGAVQLADALLLAFERGTPPPAAALQLLKEYTADAGRLQMALEAQFAGERIGQLAALLG,not soluble
14,MGFFDDKQDFLEETFAKYPPEGRRAAIMPLLRRVQQEEGWIRPERIEEIARLVGTTPTEVMGVASFYSYYQFVPTGKYHLQVCATLSCKLAGAEELWDYLTETLGIGPGEVTPDGLFSVQKVECLGSCHTAPVIQVNDEPYVECVTRARLEALLAGLRAGKRLEEIELPGKCGHHVHEVEVLEHHHHHH,soluble
15,MAHHHHHHMTGSTHNGGSRLIQYEDSSNKEFIRKYLVETRNEFIEKQMRALYECREIYKDDIDEVINILTYALENNDSVLLRHEVAYVIGQISNEKCNDILIKLLNDTEENLMVRHEAAEGLAAIGSDSNIEVIKKFLNDEKVEVRETCELALSSLLEKNKYAVCSCSNKDSIKEAIKKKRNDEFVSKKFNTIDPVVFTSSGNAKSVDALIEDLNNEAVPLKLRYEALFKLRDMETDVSINALGEVLIKDKKSAIFRHEVAFVLGQALHLNSLKYLISSLQNVGEHEMVRHEVALALGSLGSLNINSQEYKNVQSEIISTLKTFSKDACRVVAESCLVGLDYIAENLNMAIEVN,not soluble
16,MATVTELKAVLKDTLEKRGVLGHLKARIRAEVFNALDDDREPRPSLSHENLLINELIREYLEFNKYKYTASVLIAESGQPVVPLDRQFLIRELNAFEESKDNSIPLLYGILAHFLRGPPDGAQNVLLTESTLHPATKHLSWKPSRRPDDDHVRKDTGPRTTTEELPAAAQAVSR,soluble
17,MTSTSFATIELLHDPRGFATLWLNRADKNNAFNAQMIRELILALDQVQGNAGLRFLLIRGRGRHFSAGADLAWMQQAADLDYNTNLDDARELAELMYNLARLKIPTLAVVQGAAFGGALGLISCCDMAIAAEDAQFCLSEVRIGLAPAVISPFVVQAIGERATRRYALTAERFDGRQARHIGLIAECYPVADLEHQTLGWIDNLLLNSPQAMRISKELLREVGSGELTPALRRYCESAIARIRTSAEGQEGLRAFLQKRTPGWQQRDDEPAALEDRQKDSQR,not soluble
18,MSLGITDSGLSEKQVEKLVRASRPNNPSPDIWARAIKESLEELGQPVDKEHVSAVCAVISQVSAFSISPKNSRMASILRKKIEAAESNEVLRLLIETRLDQTASNGRTFRENIDSIQSELDFEKWYDEFTSASVTKPILLVLKKDASDLITTAGSMQVSVKFAEEYPKKPRNAGGGSVRDMLYTCKGGVFYGTAYLLDYKHNYDDWKYVFADFNAGHYTSRNAGFQKMLGRLTHRMVDTDGDLLSYENGNATPSVTYVTFINFLKDKGIGFDEKKVMKDFQQEKSYDFEETWSYKTLSELYKKKYGHPIYAVLPDIPLNSPKFVSKNLSTKWFAERVKSRYNHCMRTSIEGHHHHHH,soluble
19,MDRGTVFTFSPKGDIIELPVGATALDFAFMVHTQVGCKCVGAKVNGRMVTIDHKLKSGDKVEIITSKNSKGPSLEHHHHHH,not soluble
20,MSLSWADKYRPKNIDDVILNSEIRKQITEWIESWKEGIPKKRSLILYGSQGTGKTTTAYAIAGTFGVPVVEMNASDQRNRDSMRGTALMASLYGDLFVESAKRPSKVILIDEADNMFERGGDTGGIYELSKIIKNSANPIVITMNDIFEFRKKNYASDVISASLTIEMKQYGRKLDKNYNEFRRNIKARLIFILKNEGYTLPDQVVDRIIDRNMPDIRSMINDLEASAVSGTNISDEGHHHHHH,soluble
21,MGHHHHHHSHMAYEISKKVLHIVGKTNATYKLIEEGDKILLGLSGGKDSIMLACILARMQKHAPFKFDFKAVTVHYGLGEDLKWLSDLCQEQGIEHEIIYTQIAATINEKRREKSSFCSFCSRLRRGTLYSKALEEGYNKVAIAHHLDDAVESFFMNFTYNGSLRSMPPIYRAENGLLVIRPLIKVREASSIHFVTSQNIPVAPDCNCPAKQPTSDKPPIARLATKNFLKEMQNLHPRFFDSLENAFNNVQANSFSDAKYLDA,not soluble
22,MGKGKNKMHEPKNGRPQRGANGHSSRQNHRRMEMKYDNSEKMKFPVKLAMWDFDHCDPKRCSGKKLERLGLIKSLRVGQKFQGIVVSPNGKGVVCPDDLEIVEQHGASVVECSWARLEEVPFNKIGGKHERLLPYLVAANQVNYGRPWRLNCVEALAACFAIVGRMDWASELLSHFSWGMGFLELNKELLEIYQQCTDCDSVKRAEEEWLQKLEKETQERKSRAKEEDIWMMGNINRRGNGSQSDTSESEENSEQSDLEGNNQCIEYDSLGNAIRIDNMKSREAQSEESEDEESGSKENGEPLSYDPLGNLIR,not soluble
23,MPSRLHSAVMSGTRDGDLNAAIRTALGKVIDPELRRPITELGMVKSIDTGPDGSVHVEIYLTIAGCPKKSEITERVTRAVADVPGTSAVRVSLDVMSDEQRTELRKQLRGDTREPVIPFAQPDSLTRVYAVASGKGGVGKSTVTVNLAAAMAVRGLSIGVLDADIHGHSIPRMMGTTDRPTQVESMILPPIAHQVKVISIAQFTQGNTPVVWRGPMLHRALQQFLADVYWGDLDVLLLDLPPGTGDVAISVAQLIPNAELLVVTTPQLAAAEVAERAGSIALQTRQRIVGVVENMSGLTLPDGTTMQVFGEGGGRLVAERLSRAVGADVPLLGQIPLDPALVAAGDSGVPLVLSSPDSAIGKELHSIADGLSTRRRGLAGMSLGLDPTRR,not soluble
